These results are taken from publication PMC10903983 (2024).

The target in the test is KPNA2 (Homo sapiens, UniProt P52292). Put plainly: MST.

B1: FF-T nucleopeptide (peptide)
chain: KLVFF
Regarding B1, the Kd is ~31.1 µM.

B2: NLS-FF-T nucleopeptide (peptide)
chain: KLVFFVKRKKKP
Take B2: the Kd was ~1.16 µM.

One may read the Kd as the constant that tells how readily two partners part at equilibrium. Lower therefore signals tighter binding.
